Reference: patent US20240109972A1, “ANTIBODY AND TAXANE COMBINATION THERAPY” (Genmab A/S, priority 2020, published 2024)

Assay: GEN1046 in combination with docetaxel in metastatic NSCLC subjects, adverse effects
Type: in vivo, human
Description: Docetaxel was administered at a dose of 55 mg/m^2 or 75 mg/m^2 depending on the number of prior Dose Limiting Toxicities observed. The maximum tested dose of docetaxel was be 75 mg/m^2.
Subjects with a histological or cytological diagnosis of non-squamous NSCLC must not have an EGFR-sensitizing mutation and/or ALK translocation/ROS1 rearrangement. EGFR sensitizing mutations are those mutations that are amenable to treatment with an approved TKI. Documentation of EGFR and ALK status should be available per local assessment.

**Q.** For “GEN1046: PD-L1×4-1BB bispecific antibody: PD-L1-547-FEAL combined with CD137-009-HC7LC2-FEAR (SEQ ID NOs: 1, 5, 21, 19; 8, 12, 22, 20)”, which “Tolerability of the combination” value (GEN1046 100 mg with Docetaxel 55 or 75 mg/m^2) is on record?
**A.** manageable and well tolerated

**Q.** And the “Alopecia Grade 1, GEN1046-related” value (GEN1046 + 55 mg/m^2 Docetaxel)?
**A.** 1

**Q.** And the “Alopecia Grade 2, GEN1046-related” value (GEN1046 + 55 mg/m^2 Docetaxel)?
**A.** 0

**Q.** And the “Alopecia Grade 3, GEN1046-related” value (GEN1046 + 55 mg/m^2 Docetaxel)?
**A.** 0

**Q.** And the “Alopecia Grade 4, GEN1046-related” value (GEN1046 + 55 mg/m^2 Docetaxel)?
**A.** 0

**Q.** And the “Alopecia Grade 5, GEN1046-related” value (GEN1046 + 55 mg/m^2 Docetaxel)?
**A.** 0

**Q.** And the “Anemia Grade 1, GEN1046-related” value (GEN1046 + 55 mg/m^2 Docetaxel)?
**A.** 0

**Q.** And the “Anemia Grade 2, GEN1046-related” value (GEN1046 + 55 mg/m^2 Docetaxel)?
**A.** 0

**Q.** And the “Anemia Grade 3, GEN1046-related” value (GEN1046 + 55 mg/m^2 Docetaxel)?
**A.** 3

**Q.** And the “Anemia Grade 4, GEN1046-related” value (GEN1046 + 55 mg/m^2 Docetaxel)?
**A.** 0

**Q.** And the “Anemia Grade 5, GEN1046-related” value (GEN1046 + 55 mg/m^2 Docetaxel)?
**A.** 0

**Q.** And the “Blood alkaline phosphatase increase Grade 1, GEN1046-related” value (GEN1046 + 55 mg/m^2 Docetaxel)?
**A.** 0

**Q.** What about the “Blood alkaline phosphatase increase Grade 2, GEN1046-related” value (GEN1046 + 55 mg/m^2 Docetaxel) of the same substance?
**A.** 1

**Q.** And the “Blood alkaline phosphatase increase Grade 3, GEN1046-related” value (GEN1046 + 55 mg/m^2 Docetaxel)?
**A.** 0

**Q.** And the “Blood alkaline phosphatase increase Grade 4, GEN1046-related” value (GEN1046 + 55 mg/m^2 Docetaxel)?
**A.** 0

**Q.** And the “Blood alkaline phosphatase increase Grade 5, GEN1046-related” value (GEN1046 + 55 mg/m^2 Docetaxel)?
**A.** 0

**Q.** And the “Decreased appetite Grade 1, GEN1046-related” value (GEN1046 + 55 mg/m^2 Docetaxel)?
**A.** 0

**Q.** And the “Decreased appetite Grade 2, GEN1046-related” value (GEN1046 + 55 mg/m^2 Docetaxel)?
**A.** 1

**Q.** What about the “Decreased appetite Grade 3, GEN1046-related” value (GEN1046 + 55 mg/m^2 Docetaxel) of the same substance?
**A.** 0

**Q.** And the “Decreased appetite Grade 4, GEN1046-related” value (GEN1046 + 55 mg/m^2 Docetaxel)?
**A.** 0

**Q.** What about the “Decreased appetite Grade 5, GEN1046-related” value (GEN1046 + 55 mg/m^2 Docetaxel) of the same substance?
**A.** 0

**Q.** What about the “Dyspnea Grade 1, GEN1046-related” value (GEN1046 + 55 mg/m^2 Docetaxel) of the same substance?
**A.** 0

**Q.** What about the “Dyspnea Grade 2, GEN1046-related” value (GEN1046 + 55 mg/m^2 Docetaxel) of the same substance?
**A.** 1

**Q.** What about the “Dyspnea Grade 3, GEN1046-related” value (GEN1046 + 55 mg/m^2 Docetaxel) of the same substance?
**A.** 0

**Q.** And the “Dyspnea Grade 4, GEN1046-related” value (GEN1046 + 55 mg/m^2 Docetaxel)?
**A.** 0

**Q.** What about the “Dyspnea Grade 5, GEN1046-related” value (GEN1046 + 55 mg/m^2 Docetaxel) of the same substance?
**A.** 0

**Q.** And the “Fatigue Grade 1, GEN1046-related” value (GEN1046 + 55 mg/m^2 Docetaxel)?
**A.** 0

**Q.** What about the “Fatigue Grade 2, GEN1046-related” value (GEN1046 + 55 mg/m^2 Docetaxel) of the same substance?
**A.** 2

**Q.** And the “Fatigue Grade 3, GEN1046-related” value (GEN1046 + 55 mg/m^2 Docetaxel)?
**A.** 1

**Q.** And the “Fatigue Grade 4, GEN1046-related” value (GEN1046 + 55 mg/m^2 Docetaxel)?
**A.** 0

**Q.** And the “Fatigue Grade 5, GEN1046-related” value (GEN1046 + 55 mg/m^2 Docetaxel)?
**A.** 0

**Q.** What about the “Hypokalemia Grade 1, GEN1046-related” value (GEN1046 + 55 mg/m^2 Docetaxel) of the same substance?
**A.** 0

**Q.** What about the “Hypokalemia Grade 2, GEN1046-related” value (GEN1046 + 55 mg/m^2 Docetaxel) of the same substance?
**A.** 1

**Q.** What about the “Hypokalemia Grade 3, GEN1046-related” value (GEN1046 + 55 mg/m^2 Docetaxel) of the same substance?
**A.** 0

**Q.** What about the “Hypokalemia Grade 4, GEN1046-related” value (GEN1046 + 55 mg/m^2 Docetaxel) of the same substance?
**A.** 0

**Q.** What about the “Hypokalemia Grade 5, GEN1046-related” value (GEN1046 + 55 mg/m^2 Docetaxel) of the same substance?
**A.** 0

**Q.** What about the “Hypomagnesaemia Grade 1, GEN1046-related” value (GEN1046 + 55 mg/m^2 Docetaxel) of the same substance?
**A.** 1

**Q.** And the “Hypomagnesaemia Grade 2, GEN1046-related” value (GEN1046 + 55 mg/m^2 Docetaxel)?
**A.** 0

**Q.** And the “Hypomagnesaemia Grade 3, GEN1046-related” value (GEN1046 + 55 mg/m^2 Docetaxel)?
**A.** 0

**Q.** What about the “Hypomagnesaemia Grade 4, GEN1046-related” value (GEN1046 + 55 mg/m^2 Docetaxel) of the same substance?
**A.** 0

**Q.** What about the “Hypomagnesaemia Grade 5, GEN1046-related” value (GEN1046 + 55 mg/m^2 Docetaxel) of the same substance?
**A.** 0

**Q.** And the “Nausea Grade 1, GEN1046-related” value (GEN1046 + 55 mg/m^2 Docetaxel)?
**A.** 1

**Q.** What about the “Nausea Grade 2, GEN1046-related” value (GEN1046 + 55 mg/m^2 Docetaxel) of the same substance?
**A.** 0

**Q.** And the “Nausea Grade 3, GEN1046-related” value (GEN1046 + 55 mg/m^2 Docetaxel)?
**A.** 0

**Q.** What about the “Nausea Grade 4, GEN1046-related” value (GEN1046 + 55 mg/m^2 Docetaxel) of the same substance?
**A.** 0

**Q.** What about the “Nausea Grade 5, GEN1046-related” value (GEN1046 + 55 mg/m^2 Docetaxel) of the same substance?
**A.** 0

**Q.** And the “Neutrophil count decreased Grade 1, GEN1046-related” value (GEN1046 + 55 mg/m^2 Docetaxel)?
**A.** 0

**Q.** And the “Neutrophil count decreased Grade 2, GEN1046-related” value (GEN1046 + 55 mg/m^2 Docetaxel)?
**A.** 0

**Q.** What about the “Neutrophil count decreased Grade 3, GEN1046-related” value (GEN1046 + 55 mg/m^2 Docetaxel) of the same substance?
**A.** 1

**Q.** And the “Neutrophil count decreased Grade 4, GEN1046-related” value (GEN1046 + 55 mg/m^2 Docetaxel)?
**A.** 0

**Q.** And the “Neutrophil count decreased Grade 5, GEN1046-related” value (GEN1046 + 55 mg/m^2 Docetaxel)?
**A.** 0

**Q.** What about the “Pyrexia Grade 1, GEN1046-related” value (GEN1046 + 55 mg/m^2 Docetaxel) of the same substance?
**A.** 1

**Q.** And the “Pyrexia Grade 2, GEN1046-related” value (GEN1046 + 55 mg/m^2 Docetaxel)?
**A.** 0

**Q.** What about the “Pyrexia Grade 3, GEN1046-related” value (GEN1046 + 55 mg/m^2 Docetaxel) of the same substance?
**A.** 0

**Q.** And the “Pyrexia Grade 4, GEN1046-related” value (GEN1046 + 55 mg/m^2 Docetaxel)?
**A.** 0

**Q.** What about the “Pyrexia Grade 5, GEN1046-related” value (GEN1046 + 55 mg/m^2 Docetaxel) of the same substance?
**A.** 0

**Q.** What about the “Sinus tachycardia Grade 1, GEN1046-related” value (GEN1046 + 55 mg/m^2 Docetaxel) of the same substance?
**A.** 0

**Q.** What about the “Sinus tachycardia Grade 2, GEN1046-related” value (GEN1046 + 55 mg/m^2 Docetaxel) of the same substance?
**A.** 1

**Q.** What about the “Sinus tachycardia Grade 3, GEN1046-related” value (GEN1046 + 55 mg/m^2 Docetaxel) of the same substance?
**A.** 0

**Q.** And the “Sinus tachycardia Grade 4, GEN1046-related” value (GEN1046 + 55 mg/m^2 Docetaxel)?
**A.** 0

**Q.** What about the “Sinus tachycardia Grade 5, GEN1046-related” value (GEN1046 + 55 mg/m^2 Docetaxel) of the same substance?
**A.** 0

**Q.** What about the “Total treated subjects with related TEAEs Grade 1, GEN1046-related” value (GEN1046 + 55 mg/m^2 Docetaxel) of the same substance?
**A.** 4

**Q.** What about the “Total treated subjects with related TEAEs Grade 2, GEN1046-related” value (GEN1046 + 55 mg/m^2 Docetaxel) of the same substance?
**A.** 4

**Q.** What about the “Total treated subjects with related TEAEs Grade 3, GEN1046-related” value (GEN1046 + 55 mg/m^2 Docetaxel) of the same substance?
**A.** 3

**Q.** And the “Total treated subjects with related TEAEs Grade 4, GEN1046-related” value (GEN1046 + 55 mg/m^2 Docetaxel)?
**A.** 0

**Q.** And the “Total treated subjects with related TEAEs Grade 5, GEN1046-related” value (GEN1046 + 55 mg/m^2 Docetaxel)?
**A.** 0

**Q.** And the “Vaginal hemorrhage Grade 1, GEN1046-related” value (GEN1046 + 55 mg/m^2 Docetaxel)?
**A.** 1

**Q.** And the “Vaginal hemorrhage Grade 2, GEN1046-related” value (GEN1046 + 55 mg/m^2 Docetaxel)?
**A.** 0

**Q.** And the “Vaginal hemorrhage Grade 3, GEN1046-related” value (GEN1046 + 55 mg/m^2 Docetaxel)?
**A.** 0

**Q.** And the “Vaginal hemorrhage Grade 4, GEN1046-related” value (GEN1046 + 55 mg/m^2 Docetaxel)?
**A.** 0

**Q.** What about the “Vaginal hemorrhage Grade 5, GEN1046-related” value (GEN1046 + 55 mg/m^2 Docetaxel) of the same substance?
**A.** 0

**Q.** What about the “Vomiting Grade 1, GEN1046-related” value (GEN1046 + 55 mg/m^2 Docetaxel) of the same substance?
**A.** 0

**Q.** And the “Vomiting Grade 2, GEN1046-related” value (GEN1046 + 55 mg/m^2 Docetaxel)?
**A.** 1

**Q.** What about the “Vomiting Grade 3, GEN1046-related” value (GEN1046 + 55 mg/m^2 Docetaxel) of the same substance?
**A.** 0

**Q.** And the “Vomiting Grade 4, GEN1046-related” value (GEN1046 + 55 mg/m^2 Docetaxel)?
**A.** 0

**Q.** And the “Vomiting Grade 5, GEN1046-related” value (GEN1046 + 55 mg/m^2 Docetaxel)?
**A.** 0

**Q.** And the “Amylase increased Grade 1, GEN1046-related” value (GEN1046 + 75 mg/m^2 Docetaxel)?
**A.** 1

**Q.** What about the “Amylase increased Grade 2, GEN1046-related” value (GEN1046 + 75 mg/m^2 Docetaxel) of the same substance?
**A.** 0

**Q.** What about the “Amylase increased Grade 3, GEN1046-related” value (GEN1046 + 75 mg/m^2 Docetaxel) of the same substance?
**A.** 0

**Q.** What about the “Amylase increased Grade 4, GEN1046-related” value (GEN1046 + 75 mg/m^2 Docetaxel) of the same substance?
**A.** 0

**Q.** What about the “Amylase increased Grade 5, GEN1046-related” value (GEN1046 + 75 mg/m^2 Docetaxel) of the same substance?
**A.** 0

**Q.** What about the “Anemia Grade 1, GEN1046-related” value (GEN1046 + 75 mg/m^2 Docetaxel) of the same substance?
**A.** 0

**Q.** What about the “Anemia Grade 2, GEN1046-related” value (GEN1046 + 75 mg/m^2 Docetaxel) of the same substance?
**A.** 1

**Q.** And the “Anemia Grade 3, GEN1046-related” value (GEN1046 + 75 mg/m^2 Docetaxel)?
**A.** 0

**Q.** And the “Anemia Grade 4, GEN1046-related” value (GEN1046 + 75 mg/m^2 Docetaxel)?
**A.** 0
